Measurements reported in publication PMC8448731 (2021).

Target: recombinant RBD (ThermoFisher, RP-87678) (SARS-CoV-2, UniProt P0DTC2 319-541)
Assay: BLI

B1: GST-tagged SR6v15 (VHH)
VHH: EVQLVESGGGLVQAGDSLRLSCAASGDSYILWRMGWFRQAPGKEREFVAAISLDGQFTNYADSVRGRFSISADSAKYTVYLQMNSLKPEDTAVYYCAALPFLDYWGQGTQVTVSS
koff: 0.00175 s⁻¹
